Results on 1 molecule are retold here after paper PMC4448125 (Nature communications, 2015).

This assay concerns the target GST-tagged human eIF1AX (known as eIF1A), full length (human, UniProt P47813 1-144). The assay is described as follows: pull-down.

Chain of GST-tagged human eIF1AX (known as eIF1A), full length (P47813 whole entry): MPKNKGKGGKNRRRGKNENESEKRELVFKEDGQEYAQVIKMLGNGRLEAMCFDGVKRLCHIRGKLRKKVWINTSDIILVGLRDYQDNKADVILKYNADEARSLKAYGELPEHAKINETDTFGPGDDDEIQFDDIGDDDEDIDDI

B1: His-SMT3-tagged MID(432 ~ 575aa) of human Ago2 (domain or fragment)
chain: not shown
Take B1: the binding result was “binds”.
